Test results taken from PMC10980823, “Structural basis of Acinetobacter type IV pili targeting by an RNA virus” (Nature Communications, 2024).
Where “and” joins values, the source holds several entries; their conditions need not be identical. Identical values can stand only once.

B2: AP205 maturation protein (Mat) (natural protein, Acinetobacter phage AP205)
chain: MNMYKWVPESIRDSGEGQPSYSNNGDYAPSGPWVAAGIHTMPQSLRDSMRNSIMVTAQARRDVIGPEWGPDGRFTGYASVIGTPDPKPADIVNKFTVERRPVSNGNFQQRVKAGDIVVAPYTSDGKITVKLVAGQKDISSTPDYDYRIDSSLASSAGFVVAGERWYYTKRHFIIPRYFQNWRMRRRKYVTGWVMPTFYSPKEIFNRLKDSLVPDTGLVTQVWADNNTKRMDFLTAMAEIPQTLSSFLDALGYLGSLIKDFKRRRFFLNKAHQRIRNKLGVSFAERRSQIVSKYDRKIASARKPAIIVKLRQRKEKALKALDKMRVREEKKMIREFATQAASLWLSFRYEIMPLYYQSQDVLDVIANSTSEFMTSRDFVAKAINIGIPLEWNLDQENLVSQPRHNVMVKSKLSPENNIGKTLSVNPFTTAWELLTLSFVVDWFVNFGDVIAGFTGGYSDDSGATASWRFDDKKVFHLKNIPSAMVIVDINFYTRQVIDPRLCGGLAFSPKLNLFRYLDAMSLSWNRSRLKISRAT
notes: maturation protein (Mat) of Acinetobacter phage AP205, 534 amino acids as printed; native protein in the virion, where two copies (inner and outer Mat) form a dimer; Native virion protein; models of both copies are in PDB 8TOC; also called inner Mat; outer Mat; source: in AP205 virions grown on A. gp16, purified (CsCl gradient)

Columns and labels:
[1] = molecular target: Acinetobacter genomosp. 16 type IV pilus (T4P) mature pilin (Acinetobacter genomosp. 16 (endogenous)); experiment: cryo-EM structure; purified AP205 and purified T4P mixed at 1:1 volume ratio at 30 C for 30 min; AP205 with two T4P at 3.6 A, with one T4P at 4.2 A; local maps of inner Mat-T4P at 8.2 A and outer Mat-T4P at 8.6 A
[2] = molecular target: the molecule itself; experiment: cryo-EM structure; single-particle cryo-EM of purified apo AP205; asymmetric reconstruction of the mature virion at 3.1 A; icosahedral T=3 (3.2 A) and T=4 (3.4 A) particles from the same data
[3] = molecular target: B2; experiment: as above; conditions: both partners purified

B1: AP205 mature virion (complex)
chain 1: MNMYKWVPESIRDSGEGQPSYSNNGDYAPSGPWVAAGIHTMPQSLRDSMRNSIMVTAQARRDVIGPEWGPDGRFTGYASVIGTPDPKPADIVNKFTVERRPVSNGNFQQRVKAGDIVVAPYTSDGKITVKLVAGQKDISSTPDYDYRIDSSLASSAGFVVAGERWYYTKRHFIIPRYFQNWRMRRRKYVTGWVMPTFYSPKEIFNRLKDSLVPDTGLVTQVWADNNTKRMDFLTAMAEIPQTLSSFLDALGYLGSLIKDFKRRRFFLNKAHQRIRNKLGVSFAERRSQIVSKYDRKIASARKPAIIVKLRQRKEKALKALDKMRVREEKKMIREFATQAASLWLSFRYEIMPLYYQSQDVLDVIANSTSEFMTSRDFVAKAINIGIPLEWNLDQENLVSQPRHNVMVKSKLSPENNIGKTLSVNPFTTAWELLTLSFVVDWFVNFGDVIAGFTGGYSDDSGATASWRFDDKKVFHLKNIPSAMVIVDINFYTRQVIDPRLCGGLAFSPKLNLFRYLDAMSLSWNRSRLKISRAT
chain 2: ANKPMQPITSTANKIVWSDPTRLSTTFSASLLRQRVKVGIAELNNVSGQYVSVYKRPAPKPEGCADACVIMPNENQSIRTVISGSAENLATLKAEWETHKRNVDTLFASGNAGLGFLDPTAAIVSSDTT
**Q.** B1 was tested. Which stoichiometry N [1] did it give?
**A.** Its stoichiometry N is 2 and 1.

**Q.** Which “stoichiometry N” value [2] does the source give for B2 here?
**A.** The value was 2.

B3: AP205 coat protein (Coat) (natural protein)
chain: ANKPMQPITSTANKIVWSDPTRLSTTFSASLLRQRVKVGIAELNNVSGQYVSVYKRPAPKPEGCADACVIMPNENQSIRTVISGSAENLATLKAEWETHKRNVDTLFASGNAGLGFLDPTAAIVSSDTT
notes: coat protein (Coat) of Acinetobacter phage AP205; native protein of the capsid shell; also forms T=3 and T=4 icosahedral particles; also called Coat-dimer; Coat shell; source: in AP205 virions and VLPs grown on A. gp16, purified (CsCl gradient)
**Q.** Does B3 bind [3]?
**A.** Result: binds

**Q.** What about the “stoichiometry N” value [2] of the same binder?
**A.** Its value is 178.
